{"source": "paper PMC11077089", "about": "“Molecular basis of A. thaliana KEOPS complex in biosynthesizing tRNA t6A”", "key": {"[1]": {"target": "T1, KAE1 mutant-2;BUD32;CGI121;PCC1 (Arabidopsis thaliana;Arabidopsis …, UniProt O49653;Q94K14;Q6NMZ4;Q8GWD7 1-353;1-226;1-172;1-96, G43E;F44R;L45K;P46R;R47D;E48K|||)", "T1 sequence 1": "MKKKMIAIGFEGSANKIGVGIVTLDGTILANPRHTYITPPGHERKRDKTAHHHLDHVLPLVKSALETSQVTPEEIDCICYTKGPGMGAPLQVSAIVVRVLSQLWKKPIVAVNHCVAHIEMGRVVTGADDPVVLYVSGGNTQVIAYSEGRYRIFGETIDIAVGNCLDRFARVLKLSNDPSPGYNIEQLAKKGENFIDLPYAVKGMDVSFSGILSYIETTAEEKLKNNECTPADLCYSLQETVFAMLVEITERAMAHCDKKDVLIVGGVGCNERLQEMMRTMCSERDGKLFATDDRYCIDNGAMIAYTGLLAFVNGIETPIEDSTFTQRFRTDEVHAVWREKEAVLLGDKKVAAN", "T1 sequence 2": "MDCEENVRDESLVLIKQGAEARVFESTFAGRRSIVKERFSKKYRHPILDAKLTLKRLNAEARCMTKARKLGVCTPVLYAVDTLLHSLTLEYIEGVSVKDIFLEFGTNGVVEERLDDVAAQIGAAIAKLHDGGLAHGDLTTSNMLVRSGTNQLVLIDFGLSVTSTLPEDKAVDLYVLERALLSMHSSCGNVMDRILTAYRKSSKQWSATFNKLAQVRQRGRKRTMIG", "T1 sequence 3": "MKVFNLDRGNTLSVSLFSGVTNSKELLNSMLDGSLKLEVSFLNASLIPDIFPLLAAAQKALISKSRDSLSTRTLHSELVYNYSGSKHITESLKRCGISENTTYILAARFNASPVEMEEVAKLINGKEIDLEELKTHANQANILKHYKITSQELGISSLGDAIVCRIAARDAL", "T1 sequence 4": "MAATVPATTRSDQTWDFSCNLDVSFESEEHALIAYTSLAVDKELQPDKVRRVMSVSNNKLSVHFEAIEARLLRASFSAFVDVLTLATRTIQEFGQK", "assay": "EMSA; conflicts with MST; MST: 20 mM PBS pH 7.5, 300 mM NaCl, 0.05% Tween 20, 25 C, 50 nM RNA; EMSA: 20 mM Tris-HCl pH 7.5, 300 mM NaCl, 5 mM b-mercaptoethanol, 20% glycerol, agarose gel in Tris-glycine pH 8.0 (8.5 for FAM-RNA), 4 C", "details": "protein: recombinant;recombinant;recombinant;recombinant; tags: ;none (6His on partner CGI121);6His (C-term);6His (C-term); chain copies: 2;2;2;2; label: 5' 6-FAM; tRNA cloverleaf"}, "[2]": {"target": "T2, KAE1 A231G;BUD32;CGI121;PCC1 (Arabidopsis thaliana;Arabidopsis …, UniProt O49653;Q94K14;Q6NMZ4;Q8GWD7 1-353;1-226;1-172;1-96, A231G|||)", "T2 sequence 1": "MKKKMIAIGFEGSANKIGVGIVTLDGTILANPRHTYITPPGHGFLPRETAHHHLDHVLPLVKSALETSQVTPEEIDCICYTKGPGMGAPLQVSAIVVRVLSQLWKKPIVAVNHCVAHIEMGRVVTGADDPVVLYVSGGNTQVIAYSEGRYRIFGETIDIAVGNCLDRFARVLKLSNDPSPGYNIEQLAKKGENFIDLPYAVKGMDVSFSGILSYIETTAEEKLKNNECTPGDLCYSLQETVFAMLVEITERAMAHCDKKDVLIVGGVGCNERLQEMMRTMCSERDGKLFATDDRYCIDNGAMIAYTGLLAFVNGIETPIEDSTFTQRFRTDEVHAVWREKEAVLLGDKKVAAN", "T2 sequence 2": "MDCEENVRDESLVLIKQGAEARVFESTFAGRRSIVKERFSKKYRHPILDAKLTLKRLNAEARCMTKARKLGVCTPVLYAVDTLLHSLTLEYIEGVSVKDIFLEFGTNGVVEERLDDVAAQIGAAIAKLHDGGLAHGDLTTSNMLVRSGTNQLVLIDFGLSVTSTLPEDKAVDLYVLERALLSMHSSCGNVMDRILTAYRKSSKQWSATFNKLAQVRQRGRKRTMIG", "T2 sequence 3": "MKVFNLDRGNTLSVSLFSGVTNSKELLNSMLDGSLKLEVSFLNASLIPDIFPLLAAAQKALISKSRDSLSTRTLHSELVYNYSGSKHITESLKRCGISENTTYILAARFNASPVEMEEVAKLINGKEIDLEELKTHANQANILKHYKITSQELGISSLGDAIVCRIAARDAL", "T2 sequence 4": "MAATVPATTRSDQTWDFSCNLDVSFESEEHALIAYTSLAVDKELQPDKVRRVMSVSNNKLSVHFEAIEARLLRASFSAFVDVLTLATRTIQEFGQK", "assay": "EMSA; 1:5 RNA:protein; MST: 20 mM PBS pH 7.5, 300 mM NaCl, 0.05% Tween 20, 25 C, 50 nM RNA; EMSA: 20 mM Tris-HCl pH 7.5, 300 mM NaCl, 5 mM b-mercaptoethanol, 20% glycerol, agarose gel in Tris-glycine pH 8.0 (8.5 for FAM-RNA), 4 C", "details": "protein: recombinant;recombinant;recombinant;recombinant; tags: ;none (6His on partner CGI121);6His (C-term);6His (C-term); chain copies: 2;2;2;2; label: 5' 6-FAM; tRNA cloverleaf"}, "[3]": {"target": "T3, KAE1;BUD32;PCC1 (Arabidopsis thaliana;Arabidopsis …, UniProt O49653;Q94K14;Q8GWD7 1-353;1-226;1-96, ||)", "T3 sequence 1": "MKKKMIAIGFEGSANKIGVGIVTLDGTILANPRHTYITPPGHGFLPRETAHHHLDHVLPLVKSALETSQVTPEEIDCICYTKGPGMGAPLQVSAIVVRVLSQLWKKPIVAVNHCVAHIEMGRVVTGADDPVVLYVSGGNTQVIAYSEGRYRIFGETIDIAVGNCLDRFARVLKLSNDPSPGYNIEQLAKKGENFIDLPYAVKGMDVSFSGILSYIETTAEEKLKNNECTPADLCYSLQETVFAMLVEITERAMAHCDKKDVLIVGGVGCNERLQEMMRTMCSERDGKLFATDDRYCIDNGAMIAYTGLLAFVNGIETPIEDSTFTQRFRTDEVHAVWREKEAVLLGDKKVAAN", "T3 sequence 2": "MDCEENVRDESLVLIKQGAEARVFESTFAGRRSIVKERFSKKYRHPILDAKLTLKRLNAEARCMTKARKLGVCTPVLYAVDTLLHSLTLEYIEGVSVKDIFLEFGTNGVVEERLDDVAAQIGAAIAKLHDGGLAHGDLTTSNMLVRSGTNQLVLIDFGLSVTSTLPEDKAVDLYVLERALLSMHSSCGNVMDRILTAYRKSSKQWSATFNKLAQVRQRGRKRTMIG", "T3 sequence 3": "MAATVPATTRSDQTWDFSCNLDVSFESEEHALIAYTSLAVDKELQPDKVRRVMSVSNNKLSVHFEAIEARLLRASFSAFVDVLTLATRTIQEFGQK", "assay": "MST; MST: 20 mM PBS pH 7.5, 300 mM NaCl, 0.05% Tween 20, 25 C, 50 nM RNA; EMSA: 20 mM Tris-HCl pH 7.5, 300 mM NaCl, 5 mM b-mercaptoethanol, 20% glycerol, agarose gel in Tris-glycine pH 8.0 (8.5 for FAM-RNA), 4 C", "details": "protein: recombinant;recombinant;recombinant; tags: none (6His on partner PCC1);none (6His on partner CGI121);6His (C-term); chain copies: 2;2;2; label: 5' 6-FAM; tRNA cloverleaf"}, "[4]": {"target": "T4, KAE1;BUD32;CGI121;PCC1 R73D (Arabidopsis thaliana;Arabidopsis …, UniProt O49653;Q94K14;Q6NMZ4;Q8GWD7 1-353;1-226;1-172;1-96, |||R73D)", "T4 sequence 1": "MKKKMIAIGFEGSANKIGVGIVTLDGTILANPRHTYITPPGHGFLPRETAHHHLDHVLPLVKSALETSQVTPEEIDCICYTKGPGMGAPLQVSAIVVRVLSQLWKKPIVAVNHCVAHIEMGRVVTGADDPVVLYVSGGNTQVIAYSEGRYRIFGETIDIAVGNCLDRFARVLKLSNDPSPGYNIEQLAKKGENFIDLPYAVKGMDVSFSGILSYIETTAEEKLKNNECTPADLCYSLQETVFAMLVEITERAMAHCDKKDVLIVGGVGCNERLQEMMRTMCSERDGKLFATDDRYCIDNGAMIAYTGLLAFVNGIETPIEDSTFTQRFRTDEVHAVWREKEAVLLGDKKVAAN", "T4 sequence 2": "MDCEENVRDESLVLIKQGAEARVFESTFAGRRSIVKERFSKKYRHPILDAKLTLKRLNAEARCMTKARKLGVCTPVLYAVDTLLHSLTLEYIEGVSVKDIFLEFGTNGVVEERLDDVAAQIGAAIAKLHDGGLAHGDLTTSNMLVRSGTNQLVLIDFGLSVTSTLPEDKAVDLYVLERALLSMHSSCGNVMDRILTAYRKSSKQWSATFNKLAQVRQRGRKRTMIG", "T4 sequence 3": "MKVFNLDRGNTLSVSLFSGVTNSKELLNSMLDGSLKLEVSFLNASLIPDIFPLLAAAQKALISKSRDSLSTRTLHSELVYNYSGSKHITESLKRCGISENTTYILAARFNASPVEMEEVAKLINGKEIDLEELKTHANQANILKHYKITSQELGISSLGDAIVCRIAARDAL", "T4 sequence 4": "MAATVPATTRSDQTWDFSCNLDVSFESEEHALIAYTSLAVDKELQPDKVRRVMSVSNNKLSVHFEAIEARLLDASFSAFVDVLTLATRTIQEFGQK", "assay": "MST; Fig S4 legend gives ~372; MST: 20 mM PBS pH 7.5, 300 mM NaCl, 0.05% Tween 20, 25 C, 50 nM RNA; EMSA: 20 mM Tris-HCl pH 7.5, 300 mM NaCl, 5 mM b-mercaptoethanol, 20% glycerol, agarose gel in Tris-glycine pH 8.0 (8.5 for FAM-RNA), 4 C", "details": "protein: recombinant;recombinant;recombinant;recombinant; tags: none (6His on partner PCC1);none (6His on partner CGI121);6His (C-term);6His (C-term); chain copies: 2;2;2;2; label: 5' 6-FAM; tRNA cloverleaf"}}, "data": [{"binder": "5'-6FAM-tRNAArgCCU (structured_RNA) RNA: GCGCCUGUAGCUCAGUGGAUAGAGCGUCUGUUUCCUAAGCAGAAGGUCGUAGGUUCGACCCCUACCUGGCGCGCCA", "values": [{"measurement": "binding result", "setting": "[1]", "result": "binds"}, {"measurement": "binding result", "setting": "[2]", "result": "binds"}, {"measurement": "Kd", "setting": "[3]", "result": "38 ± 13.6", "unit": "µM"}, {"measurement": "Kd", "setting": "[4]", "result": "353 ± 40", "unit": "µM"}]}]}
